Assay results taken from paper doi:10.1101/2022.07.28.501929.
Where two headings read alike, the source gives them in different places.

Experiments:
[1] = target: T1, Human alpha-thrombin (Factor IIa) (Homo sapiens, UniProt P00734;P00734 328-363;364-622); assay: bead fluorescence binding
[2] = target: T1, Human alpha-thrombin (Factor IIa); assay: bead fluorescence binding; remark: listed apart in the source

Row | Binder | binding result [1] | Kd [1] | also measured
1 | SAM22-22 (mixed) DNA 1: ACGTGAGAGCAAGTCCGTGGTAGGGCAGGTTGGGGTGACTACATACGACGA DNA 2: TGCTCTCACGTTCGTCGTATGT | binds | – | –
2 | SAM16-16 with EcoRI site, EcoRI digested (mixed) DNA 1: AATTCCGAAGTCCGTGGTAGGGCAGGTTGGGGTGACTATCGACGG DNA 2: TCGG DNA 3: AATTCCGTCGAT | – | – | Kd [2]: 56.3 ± 5.48 nM
3 | SAM24-24 (mixed) DNA 1: ACGTGAGAGCAGAGTCCGTGGTAGGGCAGGTTGGGGTGACTGACATACGACGA DNA 2: CTGCTCTCACGTTCGTCGTATGTC | – | 30.9 ± 5.67 nM | –
4 | SAM16-16 (SAM16 with gap = 0) (mixed) DNA 1: ACGTGAGAAGTCCGTGGTAGGGCAGGTTGGGGTGACTTACGACGA DNA 2: TCTCACGTTCGTCGTA | – | 2010 ± 87.3 nM | –
5 | SAM16 with gap = 3 (mixed) DNA 1: ACGTGAGAAGTCCGTGGTAGGGCAGGTTGGGGTGACTTACGACGA DNA 2: TCTCACGTTTTTCGTCGTA | – | 11.6 ± 2.87 nM | –
6 | SAM20-20 (mixed) DNA 1: ACGTGAGAGCAGTCCGTGGTAGGGCAGGTTGGGGTGACTCATACGACGA DNA 2: GCTCTCACGTTCGTCGTATG | binds | – | –
